Data reported in patent US20100158922A1.

Biological target: recombinant human IFNγ (human) (UniProt P01579)
Test: cell-based or functional assay

Sequence of recombinant human IFNγ (human) (P01579 24-166 limits assumed): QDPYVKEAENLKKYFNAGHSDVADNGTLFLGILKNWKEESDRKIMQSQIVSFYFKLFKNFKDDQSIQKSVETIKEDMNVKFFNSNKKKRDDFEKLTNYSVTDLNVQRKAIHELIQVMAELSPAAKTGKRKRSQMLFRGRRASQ

MHC II Inhibition Cell-Based Assay IC50: 0.4 nM
Substance: R&D Systems mouse anti-human IFNγ antibody MAB285
